{"source": "paper PMC10299984", "about": "(Diabetes Therapy, 2023)", "origin": "cited, not measured here", "details": "36 healthy participants"}
{"substance": "insulin glargine [iGlar]", "values": [{"measurement": "INS-tmax", "result": 12, "unit": "h"}]}
